From PMC10760953, “Somatic estrogen receptor α mutations that induce dimerization promote receptor activity and breast cancer proliferation” (The Journal of Clinical Investigation, 2024)
Numbering of substitutions follows the chain as printed. Names may count otherwise.

Columns and labels:
[1] = target: S463P ERα ligand-binding domain (LBD); assay: FRET or BRET; time-resolved FRET of dimer exchange: 2 nM ER-LBD labelled at C417 (biotin, streptavidin-terbium) mixed with 10 nM ER-LBD labelled at C530 (fluorescein); apo or exposed to 1 μM E2 for 30 minutes before mixing; signal followed with time
[2] = target: the molecule itself; assay: cell-based or functional assay
[3] = target: T1, S463P ERα ligand-binding domain (LBD); assay: tr-FRET dimer exchange; details: chain shown with the change
T1 chain: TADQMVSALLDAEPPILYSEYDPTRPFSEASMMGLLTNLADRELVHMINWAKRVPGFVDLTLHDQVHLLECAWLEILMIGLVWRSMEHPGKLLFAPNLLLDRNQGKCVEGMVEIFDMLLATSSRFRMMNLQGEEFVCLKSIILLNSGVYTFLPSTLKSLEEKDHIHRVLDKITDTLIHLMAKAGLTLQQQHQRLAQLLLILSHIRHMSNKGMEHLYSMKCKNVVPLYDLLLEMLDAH

Molecule: S463P ERα ligand-binding domain (LBD) (domain or fragment)
- fold slower dissociation of dimers into monomers against WT ER, absence of E2 [1]: 7.6 times

B1: HA-tagged ERα S463P (receptor, UniProt P03372 1-595, looked up)
chain: MTMTLHTKASGMALLHQIQGNELEPLNRPQLKIPLERPLGEVYLDSSKPAVYNYPEGAAYEFNAAAAANAQVYGQTGLPYGPGSEAAAFGSNGLGGFPPLNSVSPSPLMLLHPPPQLSPFLQPHGQQVPYYLENEPSGYTVREAGPPAFYRPNSDNRRQGGRERLASTNDKGSMAMESAKETRYCAVCNDYASGYHYGVWSCEGCKAFFKRSIQGHNDYMCPATNQCTIDKNRRKSCQACRLRKCYEVGMMKGGIRKDRRGGRMLKHKRQRDDGEGRGEVGSAGDMRAANLWPSPLMIKRSKKNSLALSLTADQMVSALLDAEPPILYSEYDPTRPFSEASMMGLLTNLADRELVHMINWAKRVPGFVDLTLHDQVHLLECAWLEILMIGLVWRSMEHPGKLLFAPNLLLDRNQGKCVEGMVEIFDMLLATSSRFRMMNLQGEEFVCLKSIILLNSGVYTFLPSTLKSLEEKDHIHRVLDKITDTLIHLMAKAGLTLQQQHQRLAQLLLILSHIRHMSNKGMEHLYSMKCKNVVPLYDLLLEMLDAHRLHAPTSRGGASVEETDQSHLATAGSTSSHSLQKYYITGEAEGFPATV
- estrogen-independent expression of GREB1 (RT-qPCR, fold change relative to WT), SKBR3 cells [2]: 2.9 fold
- estrogen-independent expression of PGR (RT-qPCR, fold change relative to WT), SKBR3 cells [2]: 7.1 fold

B2: HA-ERα A430K/S463P double mutant (receptor, UniProt P03372 1-595, looked up)
chain: B1 chain with A430K
- estrogen-independent expression of GREB1 (RT-qPCR, fold change relative to WT), SKBR3 cells [2]: 0.4 fold
- estrogen-independent expression of PGR (RT-qPCR, fold change relative to WT), SKBR3 cells [2]: 0.2 fold

B3: WT ERα ligand-binding domain (LBD) S463P (protein)
chain: T1 chain
- other: t1/2 of dimer exchange ([3]; apo (no E2), parent: 7): 0.883 h
- other: t1/2 of dimer exchange ([3]; protein exposed to 1 μM E2 for 30 minutes before dimer exchange, parent: 101): 3.17 h
